According to patent US20250164508A1, “G-PROTEIN COUPLED RECEPTOR ASSAY” (The Regents of the University of Michigan, priority 2022, published 2025):
Blank lines part the entries; values can stand above or below the molecule they belong to. Square brackets hold non-standard residues; d marks the D form. Ends that are not written are not given here. Cha = N[C@@H](CC1CCCCC1)C(=O)O

Columns and labels:
[1] = target: MOR-SmBit (Mu-opioid receptor with SmBit attached to the C-terminus) (UniProt P35372); assay: in-solution split NANOLUC complementation, separately expressed components, with and without loperamide
[2] = target: MOR-SmBit (Mu-opioid receptor with SmBit attached to the C-terminus) (UniProt P35372); assay: in-solution split NANOLUC complementation, co-expressed components, with and without loperamide
[3] = target: β2-adrenergic Receptor (β2AR) (Homo sapiens, UniProt P07550); assay: β2AR IGNiTR assay (β2AR-LgBiT cell lysate with SmBiT conformation-specific binder); settings: SmBiT-Gs peptidomimetic fusion peptides with β2AR-LgBiT
[4] = target: Melanocortin-4 Receptor (MC4R) (Homo sapiens, UniProt P32245); assay: MC4R IGNiTR assay; settings: Gs fusion peptide 2 μM; drug 10 μM
μ-opioid receptor (μ-OR) = μ-opioid receptor (μ-OR) (Homo sapiens, UniProt P35372); assay: μ-OR IGNiTR assay with Gi fusion peptide
MOR = target: T1, MOR (Homo sapiens, UniProt P35372); format: biochemical; settings: peptidomimetic 35 uM and 28 uM
T1 construct: made in house; host or cells: HEK293 adhesion cells (general method)

[5] = target: B2AR-SmBit (beta-2-adrenergic receptor fused to the SmBit fragment of split NANOLUC) (UniProt P07550); assay: in-solution split NANOLUC complementation, detergent-extracted B2AR mixed with nanobody lysate, with and without isoproterenol

Chain of μ-opioid receptor (μ-OR) (P35372 whole entry, the tested form may be a part): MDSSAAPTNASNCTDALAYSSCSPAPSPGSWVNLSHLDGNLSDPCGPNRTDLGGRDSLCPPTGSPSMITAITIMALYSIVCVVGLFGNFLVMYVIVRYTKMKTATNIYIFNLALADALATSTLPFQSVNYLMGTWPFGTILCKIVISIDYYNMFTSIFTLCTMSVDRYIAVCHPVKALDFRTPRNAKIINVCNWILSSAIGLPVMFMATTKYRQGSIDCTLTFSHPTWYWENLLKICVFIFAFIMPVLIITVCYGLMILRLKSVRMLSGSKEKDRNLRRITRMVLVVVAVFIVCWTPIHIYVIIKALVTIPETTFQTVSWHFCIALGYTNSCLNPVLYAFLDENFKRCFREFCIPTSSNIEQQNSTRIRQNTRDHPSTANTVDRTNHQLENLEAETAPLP
Chain of MOR-SmBit (Mu-opioid receptor with SmBit attached to the C-terminus) (P35372 1-400, tags or fused parts left off): as the sequence (P35372 whole entry, the tested form may be a part) above
Chain of Melanocortin-4 Receptor (MC4R) (P32245 whole entry, species assumed, the tested form may be a part): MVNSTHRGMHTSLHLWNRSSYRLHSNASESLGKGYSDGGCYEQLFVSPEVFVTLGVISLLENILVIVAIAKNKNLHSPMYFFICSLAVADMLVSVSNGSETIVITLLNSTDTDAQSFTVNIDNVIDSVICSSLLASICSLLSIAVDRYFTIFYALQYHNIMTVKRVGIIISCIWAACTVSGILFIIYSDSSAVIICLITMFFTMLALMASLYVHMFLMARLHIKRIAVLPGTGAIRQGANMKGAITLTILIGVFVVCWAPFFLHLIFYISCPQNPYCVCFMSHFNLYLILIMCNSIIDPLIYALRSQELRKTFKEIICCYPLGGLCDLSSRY
T1 sequence (P35372 whole entry): as the sequence (P35372 whole entry, the tested form may be a part) above

Molecule: Nb39-LgBit (Nb39 attached to LgBit on the C-terminus) (VHH)
- fold signal change between (+Lop) and (-Lop) [1]: 3.2 fold
- fold signal change between (+Lop) and (-Lop) [2]: 3.8 fold

Molecule: VTGYRLFEEILGSFNDCRDIIQRMHLRQYE-{Cha}-L (VTGYRLFEEILGSFNDCRDIIQRMHLRQYE[Cha]L) [Gs fusion peptide]
- agonist-dependent DDR [3]: significant DDR
- agonist-dependent DDR ([3]; listed as peptide 2): showed agonist-dependent DDR
- DDR significance [4]: significant DDRs

Molecule: VTGYRLFEEILGSKKKFDAVTDIIIKNNLKDCG[Cha]F [Gi fusion peptide]
- DDR (μ-opioid receptor (μ-OR); 2 μM peptide, 0.5× μ-OR-LgBiT lysate, around 10 minutes): ~4
- DDR significance (μ-opioid receptor (μ-OR); Gi fusion peptide with μ-OR): significant DDR
- binding to the MOR protein (MOR): successful binding

Molecule: VTGYRLFEEILGSKKKFN-C-SRD-C-IQRMHLRQYE-{Cha}-L [peptide 1]
- agonist-dependent DDR [3]: did not demonstrate agonist-dependence

- fold signal change between (+Iso) and (-Iso) [5]: 1.9 fold
B1: Nb80-LgBit (Nanobody 80 fused to LgBit) (VHH, from another filing)
VHH: QVQLQESGGGLVQAGGSLRLSCAASGSIFSINTMGWYRQAPGKQRELVAAIHSGGSTNYANSVKGRFTISRDNAANTVYLQMNSLKPEDTAVYYCNVKDYGAVLYEYDYWGQGTQVTVSS
